Results taken from patent US20250262210A1 (TRUSTEES OF COLUMBIA UNIVERSITY IN THE CITY OF NEW YORK, published 2025).

Experiments:
Test in all cases: IP/MS, LZTR1 R810W-FLAG, U87
ABR = biological target: T1, ABR (human, UniProt Q12979 1-859, limits assumed)
T1 sequence (looked up): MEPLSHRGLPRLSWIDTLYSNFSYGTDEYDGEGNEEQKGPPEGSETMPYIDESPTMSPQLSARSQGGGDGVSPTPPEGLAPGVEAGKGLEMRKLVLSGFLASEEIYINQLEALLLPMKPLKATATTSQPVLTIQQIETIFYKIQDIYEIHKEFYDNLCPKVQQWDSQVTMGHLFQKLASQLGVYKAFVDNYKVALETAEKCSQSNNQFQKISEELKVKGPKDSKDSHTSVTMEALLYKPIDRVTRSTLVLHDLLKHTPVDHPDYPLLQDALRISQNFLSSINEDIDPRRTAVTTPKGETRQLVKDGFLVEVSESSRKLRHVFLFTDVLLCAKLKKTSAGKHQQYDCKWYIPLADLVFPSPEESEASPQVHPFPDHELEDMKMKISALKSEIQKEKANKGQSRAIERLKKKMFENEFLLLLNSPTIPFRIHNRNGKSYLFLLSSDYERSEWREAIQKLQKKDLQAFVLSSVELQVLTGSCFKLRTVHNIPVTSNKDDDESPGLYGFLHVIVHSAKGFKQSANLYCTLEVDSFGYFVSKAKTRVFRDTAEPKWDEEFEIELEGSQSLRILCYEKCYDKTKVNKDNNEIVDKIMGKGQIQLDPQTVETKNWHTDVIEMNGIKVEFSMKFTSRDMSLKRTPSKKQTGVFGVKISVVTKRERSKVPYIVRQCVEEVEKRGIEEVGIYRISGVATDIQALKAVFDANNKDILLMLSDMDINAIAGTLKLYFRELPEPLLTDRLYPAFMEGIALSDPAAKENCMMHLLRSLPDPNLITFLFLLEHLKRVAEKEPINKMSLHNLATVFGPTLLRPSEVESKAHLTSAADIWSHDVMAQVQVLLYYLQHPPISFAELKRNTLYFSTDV
Method in brief: (§1)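 Read-out: spectral counts from LC-MS/MS (Orbitrap Fusion) after MaxQuant identification. Variable modifications were Met oxidation, protein N-terminal acetylation and N/Q deamidation.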

DMXL2 = DMXL2 (human, UniProt Q8TDJ6 1-3036, limits assumed)
Method in brief: as §1

URB1 = URB1 (human, UniProt O60287 1-2271)
Method in brief: as §1

FKBP15 = biological target: T2, FKBP15 (human, UniProt Q5T1M5 1-1219, limits assumed)
T2 sequence (looked up): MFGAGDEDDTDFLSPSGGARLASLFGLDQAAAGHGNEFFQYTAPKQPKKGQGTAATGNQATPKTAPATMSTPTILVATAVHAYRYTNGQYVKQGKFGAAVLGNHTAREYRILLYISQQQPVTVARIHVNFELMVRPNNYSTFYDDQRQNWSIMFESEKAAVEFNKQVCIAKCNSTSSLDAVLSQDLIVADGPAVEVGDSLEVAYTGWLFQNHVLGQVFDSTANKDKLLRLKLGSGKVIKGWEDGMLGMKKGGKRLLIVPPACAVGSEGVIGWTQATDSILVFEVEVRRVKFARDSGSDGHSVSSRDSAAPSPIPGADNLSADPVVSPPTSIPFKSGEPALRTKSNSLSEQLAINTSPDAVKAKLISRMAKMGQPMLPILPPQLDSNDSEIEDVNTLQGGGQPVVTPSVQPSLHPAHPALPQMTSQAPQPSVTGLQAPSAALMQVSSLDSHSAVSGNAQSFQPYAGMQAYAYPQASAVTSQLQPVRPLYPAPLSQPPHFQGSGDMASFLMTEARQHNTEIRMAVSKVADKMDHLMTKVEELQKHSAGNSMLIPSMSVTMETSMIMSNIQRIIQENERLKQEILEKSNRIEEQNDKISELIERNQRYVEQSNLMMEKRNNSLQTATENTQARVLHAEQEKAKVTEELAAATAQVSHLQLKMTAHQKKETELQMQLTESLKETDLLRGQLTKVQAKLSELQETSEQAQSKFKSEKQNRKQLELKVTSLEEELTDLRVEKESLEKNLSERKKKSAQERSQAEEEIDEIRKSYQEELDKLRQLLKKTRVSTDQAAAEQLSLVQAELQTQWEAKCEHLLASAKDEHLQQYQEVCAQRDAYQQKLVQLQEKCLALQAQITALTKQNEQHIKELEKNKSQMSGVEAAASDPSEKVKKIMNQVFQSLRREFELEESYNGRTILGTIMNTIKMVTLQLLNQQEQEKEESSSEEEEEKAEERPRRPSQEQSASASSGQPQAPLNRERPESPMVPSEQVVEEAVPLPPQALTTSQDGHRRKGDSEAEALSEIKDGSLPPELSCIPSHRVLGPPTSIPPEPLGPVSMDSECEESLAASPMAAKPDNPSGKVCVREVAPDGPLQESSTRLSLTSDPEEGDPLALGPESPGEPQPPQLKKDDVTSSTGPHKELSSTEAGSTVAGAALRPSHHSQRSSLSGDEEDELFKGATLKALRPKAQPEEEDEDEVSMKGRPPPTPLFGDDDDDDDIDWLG
Method in brief: as §1

MAP4K4 = MAP4K4 (human, UniProt O95819 2-1239, limits assumed)
Method in brief: as §1

Measured: binding result

DMXL2, sequence (Q8TDJ6 whole entry): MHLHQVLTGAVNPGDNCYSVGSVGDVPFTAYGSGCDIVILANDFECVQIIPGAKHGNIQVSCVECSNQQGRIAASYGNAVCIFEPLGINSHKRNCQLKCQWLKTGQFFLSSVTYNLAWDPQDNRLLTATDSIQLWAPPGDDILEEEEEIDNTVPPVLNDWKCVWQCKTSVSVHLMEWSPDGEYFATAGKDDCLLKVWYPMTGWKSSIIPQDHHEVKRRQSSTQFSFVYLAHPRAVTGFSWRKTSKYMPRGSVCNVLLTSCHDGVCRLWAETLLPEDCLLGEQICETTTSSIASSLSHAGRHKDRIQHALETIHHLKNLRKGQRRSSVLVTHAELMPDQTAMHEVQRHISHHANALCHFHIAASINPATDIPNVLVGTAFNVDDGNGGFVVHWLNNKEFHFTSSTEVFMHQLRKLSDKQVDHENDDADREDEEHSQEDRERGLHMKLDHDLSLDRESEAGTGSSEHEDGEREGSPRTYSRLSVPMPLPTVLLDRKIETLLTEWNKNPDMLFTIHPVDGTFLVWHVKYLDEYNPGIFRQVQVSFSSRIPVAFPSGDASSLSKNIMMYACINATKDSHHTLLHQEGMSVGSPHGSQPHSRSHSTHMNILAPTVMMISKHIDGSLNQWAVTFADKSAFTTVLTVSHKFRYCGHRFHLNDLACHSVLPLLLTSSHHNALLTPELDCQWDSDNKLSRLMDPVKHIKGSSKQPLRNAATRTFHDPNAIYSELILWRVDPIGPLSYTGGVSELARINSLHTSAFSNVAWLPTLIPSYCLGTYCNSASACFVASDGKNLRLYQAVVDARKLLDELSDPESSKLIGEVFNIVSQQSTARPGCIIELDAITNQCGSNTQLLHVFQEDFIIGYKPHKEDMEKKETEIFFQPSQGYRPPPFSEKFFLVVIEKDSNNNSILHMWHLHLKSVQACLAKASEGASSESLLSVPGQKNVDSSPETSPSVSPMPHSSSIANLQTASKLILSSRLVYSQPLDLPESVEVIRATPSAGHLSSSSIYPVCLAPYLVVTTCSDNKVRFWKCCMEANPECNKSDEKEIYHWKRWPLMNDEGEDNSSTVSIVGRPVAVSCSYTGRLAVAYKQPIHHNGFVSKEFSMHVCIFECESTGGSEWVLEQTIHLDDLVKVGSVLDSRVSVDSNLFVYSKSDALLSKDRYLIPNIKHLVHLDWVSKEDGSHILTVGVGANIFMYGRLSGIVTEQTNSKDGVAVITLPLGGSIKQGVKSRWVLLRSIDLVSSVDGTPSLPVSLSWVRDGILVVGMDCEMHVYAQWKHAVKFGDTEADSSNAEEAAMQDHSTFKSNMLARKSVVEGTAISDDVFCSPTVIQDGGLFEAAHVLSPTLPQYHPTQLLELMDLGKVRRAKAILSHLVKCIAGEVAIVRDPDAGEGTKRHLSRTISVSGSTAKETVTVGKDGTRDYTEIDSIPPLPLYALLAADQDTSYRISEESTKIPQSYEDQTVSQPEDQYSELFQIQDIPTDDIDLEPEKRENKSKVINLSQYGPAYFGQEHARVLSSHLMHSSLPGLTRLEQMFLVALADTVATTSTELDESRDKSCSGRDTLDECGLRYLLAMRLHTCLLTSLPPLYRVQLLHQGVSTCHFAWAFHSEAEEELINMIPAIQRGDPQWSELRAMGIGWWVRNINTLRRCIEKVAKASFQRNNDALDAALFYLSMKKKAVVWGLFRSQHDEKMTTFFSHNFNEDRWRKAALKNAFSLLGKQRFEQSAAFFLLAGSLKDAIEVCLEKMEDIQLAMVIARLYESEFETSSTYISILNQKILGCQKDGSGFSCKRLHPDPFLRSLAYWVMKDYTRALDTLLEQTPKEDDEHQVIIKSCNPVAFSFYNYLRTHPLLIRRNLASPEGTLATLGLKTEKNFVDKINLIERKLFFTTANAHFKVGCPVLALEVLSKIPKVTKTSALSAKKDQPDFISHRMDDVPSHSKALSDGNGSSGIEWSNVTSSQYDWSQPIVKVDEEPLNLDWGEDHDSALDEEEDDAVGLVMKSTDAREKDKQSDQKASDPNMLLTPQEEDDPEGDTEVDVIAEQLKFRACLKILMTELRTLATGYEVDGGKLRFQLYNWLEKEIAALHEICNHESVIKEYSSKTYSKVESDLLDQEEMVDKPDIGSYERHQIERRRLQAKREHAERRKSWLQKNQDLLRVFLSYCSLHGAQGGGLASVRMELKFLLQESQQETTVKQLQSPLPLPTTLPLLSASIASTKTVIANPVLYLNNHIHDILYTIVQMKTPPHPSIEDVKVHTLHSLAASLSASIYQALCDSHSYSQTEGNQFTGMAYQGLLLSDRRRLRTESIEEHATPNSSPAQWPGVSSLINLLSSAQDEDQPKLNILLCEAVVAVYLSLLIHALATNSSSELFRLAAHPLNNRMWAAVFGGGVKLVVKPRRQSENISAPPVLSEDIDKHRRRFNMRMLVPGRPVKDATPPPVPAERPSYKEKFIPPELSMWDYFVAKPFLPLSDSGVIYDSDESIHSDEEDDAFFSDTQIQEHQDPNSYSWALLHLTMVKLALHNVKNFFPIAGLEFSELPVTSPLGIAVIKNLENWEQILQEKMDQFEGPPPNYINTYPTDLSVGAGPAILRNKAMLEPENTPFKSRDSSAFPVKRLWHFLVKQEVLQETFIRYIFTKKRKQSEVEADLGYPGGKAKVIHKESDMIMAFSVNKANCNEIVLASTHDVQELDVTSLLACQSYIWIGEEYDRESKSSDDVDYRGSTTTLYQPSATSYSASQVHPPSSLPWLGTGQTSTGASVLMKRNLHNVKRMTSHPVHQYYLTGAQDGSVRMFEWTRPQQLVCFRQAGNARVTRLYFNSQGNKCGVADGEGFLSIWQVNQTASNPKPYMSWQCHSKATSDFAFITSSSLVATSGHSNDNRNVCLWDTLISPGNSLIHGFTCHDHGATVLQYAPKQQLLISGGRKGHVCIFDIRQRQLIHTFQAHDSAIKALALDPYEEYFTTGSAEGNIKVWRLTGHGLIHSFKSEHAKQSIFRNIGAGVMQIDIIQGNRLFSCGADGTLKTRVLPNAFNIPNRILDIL
MAP4K4, sequence (O95819 2-1239 limits assumed): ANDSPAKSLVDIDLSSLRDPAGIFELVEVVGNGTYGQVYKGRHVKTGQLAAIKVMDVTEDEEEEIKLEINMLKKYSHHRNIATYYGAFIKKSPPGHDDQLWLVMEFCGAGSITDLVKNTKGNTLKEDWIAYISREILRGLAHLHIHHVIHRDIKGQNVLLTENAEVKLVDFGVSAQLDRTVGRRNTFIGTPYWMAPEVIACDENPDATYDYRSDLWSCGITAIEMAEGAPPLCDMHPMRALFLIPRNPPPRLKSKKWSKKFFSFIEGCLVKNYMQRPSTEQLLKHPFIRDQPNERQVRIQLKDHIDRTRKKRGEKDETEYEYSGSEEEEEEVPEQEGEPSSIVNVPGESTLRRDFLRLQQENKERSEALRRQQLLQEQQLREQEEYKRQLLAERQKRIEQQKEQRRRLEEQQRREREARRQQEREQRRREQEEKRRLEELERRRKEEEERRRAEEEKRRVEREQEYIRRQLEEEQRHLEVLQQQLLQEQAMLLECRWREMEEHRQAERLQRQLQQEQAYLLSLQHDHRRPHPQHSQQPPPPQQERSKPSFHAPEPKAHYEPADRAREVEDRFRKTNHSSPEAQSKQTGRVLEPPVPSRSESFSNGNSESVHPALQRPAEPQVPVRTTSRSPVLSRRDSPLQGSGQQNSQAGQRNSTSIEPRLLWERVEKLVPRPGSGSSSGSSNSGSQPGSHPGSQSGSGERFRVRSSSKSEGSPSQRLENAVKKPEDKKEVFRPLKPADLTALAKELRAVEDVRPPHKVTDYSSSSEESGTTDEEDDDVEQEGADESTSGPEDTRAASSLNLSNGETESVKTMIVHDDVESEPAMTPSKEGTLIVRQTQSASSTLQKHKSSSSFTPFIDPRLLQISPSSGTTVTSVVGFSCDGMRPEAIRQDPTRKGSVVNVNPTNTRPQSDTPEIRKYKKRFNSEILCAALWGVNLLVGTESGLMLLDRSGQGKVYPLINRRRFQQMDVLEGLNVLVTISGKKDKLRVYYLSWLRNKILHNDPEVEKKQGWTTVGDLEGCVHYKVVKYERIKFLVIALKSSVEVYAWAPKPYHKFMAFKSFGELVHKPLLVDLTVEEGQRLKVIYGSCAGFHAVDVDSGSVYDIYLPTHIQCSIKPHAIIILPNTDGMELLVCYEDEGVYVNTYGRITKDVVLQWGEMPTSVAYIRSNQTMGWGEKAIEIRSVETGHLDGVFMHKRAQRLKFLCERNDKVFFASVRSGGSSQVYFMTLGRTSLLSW

B1: LZTR1 R810W-FLAG (other, human, UniProt Q8N653 1-840, looked up)
chain: MAGPGSTGGQIGAAALAGGARSKVAPSVDFDHSCSDSVEYLTLNFGPFETVHRWRRLPPCDEFVGARRSKHTVVAYKDAIYVFGGDNGKTMLNDLLRFDVKDCSWCRAFTTGTPPAPRYHHSAVVYGSSMFVFGGYTGDIYSNSNLKNKNDLFEYKFATGQWTEWKIEGRLPVARSAHGATVYSDKLWIFAGYDGNARLNDMWTIGLQDRELTCWEEVAQSGEIPPSCCNFPVAVCRDKMFVFSGQSGAKITNNLFQFEFKDKTWTRIPTEHLLRGSPPPPQRRYGHTMVAFDRHLYVFGGAADNTLPNELHCYDVDFQTWEVVQPSSDSEVGGAEVPERACASEEVPTLTYEERVGFKKSRDVFGLDFGTTSAKQPTQPASELPSGRLFHAAAVISDAMYIFGGTVDNNIRSGEMYRFQFSCYPKCTLHEDYGRLWESRQFCDVEFVLGEKEECVQGHVAIVTARSRWLRRKITQARERLAQKLEQEAAPVPREAPGVAAGGARPPLLHVAIREAEARPFEVLMQFLYTDKIKYPRKGHVEDVLLIMDVYKLALSFQLCRLEQLCRQYIEASVDLQNVLVVCESAARLQLSQLKEHCLNFVVKESHFNQVIMMKEFERLSSPLIVEIVRRKQQPPPRTPLDQPVDIGTSLIQDMKAYLEGAGAEFCDITLLLDGHPRPAHKAILAARSSYFEAMFRSFMPEDGQVNISIGEMVPSRQAFESMLRYIYYGEVNMPPEDSLYLFAAPYYYGFYNNRLQAYCKQNLEMNVTVQNVLQILEAADKTQALDMKRHCLHIIVHQFTKVSKLPTLWSLSQQLLLDIIDSLASHISDKQCAELGADI
notes: Stably expressed in U87 cells by lentivirus; also called LZTR1-FLAG-R810W; LZTR1 RW; not shown: FLAG tag
binds: all assays above
